In the Human Domainome abundance scans (Beltran et al. 2025):
± gives the uncertainty stated by the source.

B1: RNA-binding E3 ubiquitin-protein ligase MEX3C, residues 325 to 391; numbered along this chain, Q5U5Q3 (parent)
chain: GQTTVQVRVPYRVVGLVVGPKGATIKRIQQQTHTYIVTPSRDKEPVFEVTGMPENVDRAREEIEMHI

Variants of: B1
Assay: abundance fitness (aPCA) (normalised: wild type 0, dead -1); higher = more abundant; growth selection in yeast, the domain comes from the species named
Conditions: Homo sapiens

GQTTVQRRVPYRVVGLVVGPKGATIKRIQQQTHTYIVTPSRDKEPVFEVTGMPENVDRAREEIEMHI and GQTTVQTRVPYRVVGLVVGPKGATIKRIQQQTHTYIVTPSRDKEPVFEVTGMPENVDRAREEIEMHI are within error of each other in abundance fitness: -0.851 ± 0.11 for the first, -0.802 ± 0.21 for the second.

Going from GQTTVQERVPYRVVGLVVGPKGATIKRIQQQTHTYIVTPSRDKEPVFEVTGMPENVDRAREEIEMHI to GQTTVQCRVPYRVVGLVVGPKGATIKRIQQQTHTYIVTPSRDKEPVFEVTGMPENVDRAREEIEMHI, the abundance fitness falls from -0.39 ± 0.11 to -0.769 ± 0.18.

GQTTVQSRVPYRVVGLVVGPKGATIKRIQQQTHTYIVTPSRDKEPVFEVTGMPENVDRAREEIEMHI and GQTTVQKRVPYRVVGLVVGPKGATIKRIQQQTHTYIVTPSRDKEPVFEVTGMPENVDRAREEIEMHI are within error of each other in abundance fitness: -0.516 ± 0.12 for the first, -0.47 ± 0.15 for the second.

GQTTVQYRVPYRVVGLVVGPKGATIKRIQQQTHTYIVTPSRDKEPVFEVTGMPENVDRAREEIEMHI and GQTTVQGRVPYRVVGLVVGPKGATIKRIQQQTHTYIVTPSRDKEPVFEVTGMPENVDRAREEIEMHI are within error of each other in abundance fitness: -0.717 ± 0.17 for the first, -0.809 ± 0.069 for the second.

Compared with GQTTVQIRVPYRVVGLVVGPKGATIKRIQQQTHTYIVTPSRDKEPVFEVTGMPENVDRAREEIEMHI, GQTTVQARVPYRVVGLVVGPKGATIKRIQQQTHTYIVTPSRDKEPVFEVTGMPENVDRAREEIEMHI is lower in abundance fitness: 0.092 ± 0.059 for the first, -0.731 ± 0.11 for the second.

First: GQTTVQPRVPYRVVGLVVGPKGATIKRIQQQTHTYIVTPSRDKEPVFEVTGMPENVDRAREEIEMHI
Second: GQTTVQFRVPYRVVGLVVGPKGATIKRIQQQTHTYIVTPSRDKEPVFEVTGMPENVDRAREEIEMHI
The abundance fitness of the first is lower: -0.567 ± 0.17 for the first, -0.124 ± 0.17 for the second.

GQTTVQQRVPYRVVGLVVGPKGATIKRIQQQTHTYIVTPSRDKEPVFEVTGMPENVDRAREEIEMHI and GQTTVQHRVPYRVVGLVVGPKGATIKRIQQQTHTYIVTPSRDKEPVFEVTGMPENVDRAREEIEMHI are the same in abundance fitness: -0.603 ± 0.23 for the first, -0.603 ± 0.12 for the second.

GQTTVQDRVPYRVVGLVVGPKGATIKRIQQQTHTYIVTPSRDKEPVFEVTGMPENVDRAREEIEMHI and GQTTVQLRVPYRVVGLVVGPKGATIKRIQQQTHTYIVTPSRDKEPVFEVTGMPENVDRAREEIEMHI are within error of each other in abundance fitness: -0.571 ± 0.13 for the first, -0.537 ± 0.092 for the second.

GQTTVQWRVPYRVVGLVVGPKGATIKRIQQQTHTYIVTPSRDKEPVFEVTGMPENVDRAREEIEMHI and GQTTVQNRVPYRVVGLVVGPKGATIKRIQQQTHTYIVTPSRDKEPVFEVTGMPENVDRAREEIEMHI are within error of each other in abundance fitness: -0.92 ± 0.21 for the first, -0.987 ± 0.3 for the second.

GQTTVQVRVIYRVVGLVVGPKGATIKRIQQQTHTYIVTPSRDKEPVFEVTGMPENVDRAREEIEMHI and GQTTVQVRVMYRVVGLVVGPKGATIKRIQQQTHTYIVTPSRDKEPVFEVTGMPENVDRAREEIEMHI are within error of each other in abundance fitness: -0.634 ± 0.17 for the first, -0.885 ± 0.24 for the second.

GQTTVQVRVKYRVVGLVVGPKGATIKRIQQQTHTYIVTPSRDKEPVFEVTGMPENVDRAREEIEMHI and GQTTVQVRVCYRVVGLVVGPKGATIKRIQQQTHTYIVTPSRDKEPVFEVTGMPENVDRAREEIEMHI are within error of each other in abundance fitness: -0.563 ± 0.2 for the first, -0.655 ± 0.16 for the second.

GQTTVQVRVGYRVVGLVVGPKGATIKRIQQQTHTYIVTPSRDKEPVFEVTGMPENVDRAREEIEMHI and GQTTVQVRVFYRVVGLVVGPKGATIKRIQQQTHTYIVTPSRDKEPVFEVTGMPENVDRAREEIEMHI are within error of each other in abundance fitness: -0.767 ± 0.066 for the first, -1.1 ± 0.34 for the second.

GQTTVQVRVQYRVVGLVVGPKGATIKRIQQQTHTYIVTPSRDKEPVFEVTGMPENVDRAREEIEMHI and GQTTVQVRVWYRVVGLVVGPKGATIKRIQQQTHTYIVTPSRDKEPVFEVTGMPENVDRAREEIEMHI are within error of each other in abundance fitness: -0.754 ± 0.17 for the first, -0.841 ± 0.15 for the second.

GQTTVQVRVLYRVVGLVVGPKGATIKRIQQQTHTYIVTPSRDKEPVFEVTGMPENVDRAREEIEMHI and GQTTVQVRVVYRVVGLVVGPKGATIKRIQQQTHTYIVTPSRDKEPVFEVTGMPENVDRAREEIEMHI are within error of each other in abundance fitness: -0.693 ± 0.15 for the first, -0.707 ± 0.11 for the second.

GQTTVQVRVAYRVVGLVVGPKGATIKRIQQQTHTYIVTPSRDKEPVFEVTGMPENVDRAREEIEMHI and GQTTVQVRVHYRVVGLVVGPKGATIKRIQQQTHTYIVTPSRDKEPVFEVTGMPENVDRAREEIEMHI are within error of each other in abundance fitness: -0.708 ± 0.12 for the first, -0.825 ± 0.23 for the second.

GQTTVQVRVDYRVVGLVVGPKGATIKRIQQQTHTYIVTPSRDKEPVFEVTGMPENVDRAREEIEMHI and GQTTVQVRVTYRVVGLVVGPKGATIKRIQQQTHTYIVTPSRDKEPVFEVTGMPENVDRAREEIEMHI are within error of each other in abundance fitness: -0.372 ± 0.14 for the first, -0.611 ± 0.2 for the second.

GQTTVQVRVSYRVVGLVVGPKGATIKRIQQQTHTYIVTPSRDKEPVFEVTGMPENVDRAREEIEMHI and GQTTVQVRTPYRVVGLVVGPKGATIKRIQQQTHTYIVTPSRDKEPVFEVTGMPENVDRAREEIEMHI are within error of each other in abundance fitness: -0.793 ± 0.14 for the first, -0.84 ± 0.18 for the second.

GQTTVQVRFPYRVVGLVVGPKGATIKRIQQQTHTYIVTPSRDKEPVFEVTGMPENVDRAREEIEMHI and GQTTVQVRKPYRVVGLVVGPKGATIKRIQQQTHTYIVTPSRDKEPVFEVTGMPENVDRAREEIEMHI are within error of each other in abundance fitness: -0.933 ± 0.21 for the first, -0.776 ± 0.18 for the second.

GQTTVQVRDPYRVVGLVVGPKGATIKRIQQQTHTYIVTPSRDKEPVFEVTGMPENVDRAREEIEMHI and GQTTVQVRWPYRVVGLVVGPKGATIKRIQQQTHTYIVTPSRDKEPVFEVTGMPENVDRAREEIEMHI are within error of each other in abundance fitness: -0.834 ± 0.43 for the first, -0.767 ± 0.11 for the second.

GQTTVQVRRPYRVVGLVVGPKGATIKRIQQQTHTYIVTPSRDKEPVFEVTGMPENVDRAREEIEMHI and GQTTVQVRPPYRVVGLVVGPKGATIKRIQQQTHTYIVTPSRDKEPVFEVTGMPENVDRAREEIEMHI are within error of each other in abundance fitness: -0.609 ± 0.07 for the first, -0.825 ± 0.4 for the second.
